# In patent publication US10213494B2, “Treatment of synucleinopathies” (The Brigham and Women's Hospital, Inc., priority 2007, dated 2019):
# Square brackets hold non-standard residues; d marks the D form. Peptide text beside a SMILES is read from it. * marks the point of attachment. Sta = CC(C)C[C@H](N)[C@@H](O)CC(=O)O; Isovaleryl = CC(C)CC(=O)*
# Tested on: α-synuclein protein (wild-type, human) in MES23.5 cells
# Assay: Sandwich ELISA of intracellular α-synuclein in MES23.5 cells co-transfected with wild-type human SNCA cDNA and lysosomal enzyme cDNA
# Format: cell-based
# Details: GBA variant plasmid 5 μg per 10 cm dish + 0.5 μg SNCA cDNA, 24 hours after transfection, no prosaposin; mean+/−sem
# Procedure: Sera from six rabbits were raised and affinity-purified at Open Biosystems, Inc. (openbiosystems.com) against recombinant, full-length human αS. Recombinant αS had been HPLC- and MS-characterized and subjected to amino acid composition and protein concentration analyses. For ELISA, 384-well MaxiSorp plates (Nunc, Inc) were coated with 50 μl/well capturing polyclonal Ab (hSA-2) diluted in coating buffer (NaHCO3 with 0.2% NaN3, pH 9.6). Following washes with PBS/0.05% Tween-20 (PBS-T), plates were blocked for 2 hours at 37° C. in blocking buffer (1.125% fish skin gelatin; PBS-T). After 4 washes, samples were loaded and incubated at 4° C. for 12 hours. Biotinylated Syn-1 mAb (as the assaying Ab) was generated using 200 μg Sulfo-NHS-LC Biotin (Pierce), diluted in blocking buffer and added to the plate for 2 hours at 37° C. Following 4 washes, ExtrAvidin phosphatase (Sigma) diluted in blocking buffer was applied for 1 hr at 37° C. Color development was carried out by using Fast-p-Nitrophenyl Phosphate (Sigma) and monitored kinetically at OD 405 nm every 5 minutes for up to 60 minutes.
# To optimize a ‘DNA: LIPOFECTAMINE® 2000’ ratio with low cell toxicity, MES23.5 cells were transfected with either 0.25, 0.5 or 1 μg αS-encoding, wild-type, human SNCA cDNA plus empty vector cDNA up to a total of 5.5 μg DNA per 10 cm dish. 24 hours after transfection, cell lysates were harvested as described above. For serial dilutions of cell lysates, blocking buffer containing 0.5% lysate from vector-transfected wells was used as diluent, which was also used to create the blank and the corresponding standard curve of recombinant human αS. Saturation kinetics were examined for identification of time point(s) where standards and sample dilutions were in the log phase.
# MES cells were transfected with 0.5 μg per 10 cm dish of αS-encoding SNCA cDNA-carrying plasmid, plus 5 μg per 10 cm dish of wild-type or mutant, human GBA-encoding plasmid. The GBA variants used were wild type, N370S, D409H, L444P, E235A, and E340A. These 5 GBA mutants were created by site-directed mutagenesis, using the Quickchange® kit (Stratagene), and sequence-verified. The N370S, D409H and L444P are known to occur (in the homozygous or compound heterozygous state) in Gaucher disease in the heterozygous state in Parkinson Disease patients and/or patients with dementia with Lewy bodies. The E235A and E340A mutant GBA proteins are not known to occur in people.
# 24 hours after transfection, MES cells were lysed as described above and all lysates were analyzed by ELISA. […] This is in contrast to the result observed in Example 5 above. The observed discrepancy can reflect the differences in total DNA transfected in the two paradigms (FIG. 2B; FIG. 2C versus FIG. 4), thereby leading to changes in the DNA:LIPOFECTAMINE® 2000 ratio, and in the role of co-expressed prosaposin (saposin C). It is therefore conceivable that wild-type GBA can have variable effects on αS levels in these MES23.5 cells, depending on the rate of αS import into lysosomes and the composition as well as activation state of more than one lysosomal enzyme.
# MES23.5 cells were transfected with 0.5 μg per 10 cm dish of an αS-encoding, wild-type, human SNCA cDNA-carrying plasmid (referred to as MES-hSNCA WT cells in the Western blot shown in FIG. 6), plus either 1.25, 2.5 or 5 μg per 10 cm dish of a human Cathepsin D-encoding CTSD cDNA plasmid, which was purchased from OriGene Technologies, Inc., and was under the control of a CMV promoter. The Cathepsin D clone was fully sequence-verified after isolation and maxiprep. Each transfection arm was balanced with empty vector DNA up to a total of 5.5 μg DNA per 10 cm dish. 24 hours after transfection, cells were lysed, and the resulting lysates were analyzed by the sandwich ELISA described herein. […]
row,Molecule,"intracellular α-synuclein level, % of vector cDNA control levels"
1,"N370S: human GBA mutant N370S, created by site-directed mutagenesis, disease-related (protein, UniProt P04062 40-536, looked up, variant N370S) Lysosomal acid …: ARPCIPKSFGYSSVVCVCNATYCDSFDPPTFPALGTFSRYESTRSGRRMELSMGPIQANHTGTGLLLTLQPEQKFQKVKGFGGAMTDAAALNILALSPPAQNLLLKSYFSEEGIGYNIIRVPMASCDFSIRTYTYADTPDDFQLHNFSLPEEDTKLKIPLIHRALQLAQRPVSLLASPWTSPTWLKTNGAVNGKGSLKGQPGDIYHQTWARYFVKFLDAYAEHKLQFWAVTAENEPSAGLLSGYPFQCLGFTPEHQRDFIARDLGPTLANSTHHNVRLLMLDDQRLLLPHWAKVVLTDPEAAKYVHGIAVHWYLDFLAPAKATLGETHRLFPNTMLFASEACVGSKFWEQSVRLGSWDRGMQYSHSIITSLLYHVVGWTDWNLALNPEGGPNWVRNFVDSPIIVDITKDTFYKQPMFYHLGHFSKFIPEGSQRVGLVASQKNDLDAVALMHPDGSAVVVVLNRSSKDVPLTIKDPAVGFLETISPGYSIHTYLWRRQ",121.1+/−4.98%
2,"E235A: human GBA mutant directed at the acid/base catalyst, catalytically inactive (protein, UniProt P04062 40-536, looked up, variant E235A) Lysosomal acid …: ARPCIPKSFGYSSVVCVCNATYCDSFDPPTFPALGTFSRYESTRSGRRMELSMGPIQANHTGTGLLLTLQPEQKFQKVKGFGGAMTDAAALNILALSPPAQNLLLKSYFSEEGIGYNIIRVPMASCDFSIRTYTYADTPDDFQLHNFSLPEEDTKLKIPLIHRALQLAQRPVSLLASPWTSPTWLKTNGAVNGKGSLKGQPGDIYHQTWARYFVKFLDAYAEHKLQFWAVTAENAPSAGLLSGYPFQCLGFTPEHQRDFIARDLGPTLANSTHHNVRLLMLDDQRLLLPHWAKVVLTDPEAAKYVHGIAVHWYLDFLAPAKATLGETHRLFPNTMLFASEACVGSKFWEQSVRLGSWDRGMQYSHSIITNLLYHVVGWTDWNLALNPEGGPNWVRNFVDSPIIVDITKDTFYKQPMFYHLGHFSKFIPEGSQRVGLVASQKNDLDAVALMHPDGSAVVVVLNRSSKDVPLTIKDPAVGFLETISPGYSIHTYLWRRQ",231.0+/−37.14%
3,"D409H: human GBA mutant D409H, created by site-directed mutagenesis, disease-related (protein, UniProt P04062 40-536, looked up, variant D409H) Lysosomal acid …: ARPCIPKSFGYSSVVCVCNATYCDSFDPPTFPALGTFSRYESTRSGRRMELSMGPIQANHTGTGLLLTLQPEQKFQKVKGFGGAMTDAAALNILALSPPAQNLLLKSYFSEEGIGYNIIRVPMASCDFSIRTYTYADTPDDFQLHNFSLPEEDTKLKIPLIHRALQLAQRPVSLLASPWTSPTWLKTNGAVNGKGSLKGQPGDIYHQTWARYFVKFLDAYAEHKLQFWAVTAENEPSAGLLSGYPFQCLGFTPEHQRDFIARDLGPTLANSTHHNVRLLMLDDQRLLLPHWAKVVLTDPEAAKYVHGIAVHWYLDFLAPAKATLGETHRLFPNTMLFASEACVGSKFWEQSVRLGSWDRGMQYSHSIITNLLYHVVGWTDWNLALNPEGGPNWVRNFVDSPIIVDITKHTFYKQPMFYHLGHFSKFIPEGSQRVGLVASQKNDLDAVALMHPDGSAVVVVLNRSSKDVPLTIKDPAVGFLETISPGYSIHTYLWRRQ",269.4+/−56.6%
4,"E340A: human GBA mutant directed at the nucleophile, catalytically inactive (protein, UniProt P04062 40-536, looked up, variant E340A) Lysosomal acid …: ARPCIPKSFGYSSVVCVCNATYCDSFDPPTFPALGTFSRYESTRSGRRMELSMGPIQANHTGTGLLLTLQPEQKFQKVKGFGGAMTDAAALNILALSPPAQNLLLKSYFSEEGIGYNIIRVPMASCDFSIRTYTYADTPDDFQLHNFSLPEEDTKLKIPLIHRALQLAQRPVSLLASPWTSPTWLKTNGAVNGKGSLKGQPGDIYHQTWARYFVKFLDAYAEHKLQFWAVTAENEPSAGLLSGYPFQCLGFTPEHQRDFIARDLGPTLANSTHHNVRLLMLDDQRLLLPHWAKVVLTDPEAAKYVHGIAVHWYLDFLAPAKATLGETHRLFPNTMLFASAACVGSKFWEQSVRLGSWDRGMQYSHSIITNLLYHVVGWTDWNLALNPEGGPNWVRNFVDSPIIVDITKDTFYKQPMFYHLGHFSKFIPEGSQRVGLVASQKNDLDAVALMHPDGSAVVVVLNRSSKDVPLTIKDPAVGFLETISPGYSIHTYLWRRQ",156.4+/−19.65%
5,"L444P: human GBA mutant L444P, created by site-directed mutagenesis, disease-related (protein, UniProt P04062 40-536, looked up, variant L444P) Lysosomal acid …: ARPCIPKSFGYSSVVCVCNATYCDSFDPPTFPALGTFSRYESTRSGRRMELSMGPIQANHTGTGLLLTLQPEQKFQKVKGFGGAMTDAAALNILALSPPAQNLLLKSYFSEEGIGYNIIRVPMASCDFSIRTYTYADTPDDFQLHNFSLPEEDTKLKIPLIHRALQLAQRPVSLLASPWTSPTWLKTNGAVNGKGSLKGQPGDIYHQTWARYFVKFLDAYAEHKLQFWAVTAENEPSAGLLSGYPFQCLGFTPEHQRDFIARDLGPTLANSTHHNVRLLMLDDQRLLLPHWAKVVLTDPEAAKYVHGIAVHWYLDFLAPAKATLGETHRLFPNTMLFASEACVGSKFWEQSVRLGSWDRGMQYSHSIITNLLYHVVGWTDWNLALNPEGGPNWVRNFVDSPIIVDITKDTFYKQPMFYHLGHFSKFIPEGSQRVGLVASQKNDPDAVALMHPDGSAVVVVLNRSSKDVPLTIKDPAVGFLETISPGYSIHTYLWRRQ",172.7+/−23.02%

# Same assay, conditions: pepstatin A included in the cell lysis buffer
row,Molecule,amount of αS detected in the lysate
1,"CC(C)CC(=O)N[C@H](C(=O)N[C@H](C(=O)N[C@@H](CC(C)C)[C@@H](O)CC(=O)N[C@@H](C)C(=O)N[C@@H](CC(C)C)[C@@H](O)CC(=O)O)C(C)C)C(C)C [pepstatin A, reference compound] (Isovaleryl-VV[Sta]A[Sta]-OH)",did not change the amount of αS detected in the lysate
